Consider one molecule from patent publication US20110039257A1.

The assay has as its target Akt1/PKB alpha recombinant enzyme (Upstate Biotechnology). Description: cell-based or functional assay.

Chain of Akt1/PKB alpha recombinant enzyme (Upstate Biotechnology) (P31749 whole entry): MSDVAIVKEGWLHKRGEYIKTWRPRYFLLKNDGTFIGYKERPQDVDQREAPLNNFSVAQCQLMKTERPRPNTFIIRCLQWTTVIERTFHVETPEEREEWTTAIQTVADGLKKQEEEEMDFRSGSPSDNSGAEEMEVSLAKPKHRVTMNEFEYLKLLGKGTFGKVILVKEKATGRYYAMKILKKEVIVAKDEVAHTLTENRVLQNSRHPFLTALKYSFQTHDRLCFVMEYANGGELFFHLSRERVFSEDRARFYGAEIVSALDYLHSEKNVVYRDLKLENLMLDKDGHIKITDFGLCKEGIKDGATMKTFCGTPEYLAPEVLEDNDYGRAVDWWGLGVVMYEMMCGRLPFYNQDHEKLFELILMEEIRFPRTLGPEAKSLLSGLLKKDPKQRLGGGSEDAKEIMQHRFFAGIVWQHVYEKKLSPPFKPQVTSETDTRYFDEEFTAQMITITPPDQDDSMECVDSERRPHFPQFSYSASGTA

B1: CPM firefly luciferase serine/threonine kinase biosensor, construct pBFB340: Met-(Luc2.0 A-544)-(linker X)-…-(…)-(Rad53p FHA2 domain)-(linker Y)-(Luc2.0 4-B) (protein, part only; not given: luciferase fragments and linkers, part only)
chain, part: RKRDRLGTLGIGGSSGGGSGGGGSGGGNGRFLTLKPLPDSIIQESLEIQQGVNPFFIGRSEDCNCKIEDNRLSRVHCFIFKKRHAVGKSMYESPAQGLDDIWYCHTGTNVSYLNNNRMIQGTKFLLQDGDEIKIIWDKNNKFVIGFKVEINDTTGLFNEGLGMLQEQRVVLKQTAEEKDLVKKL
Turning to B1, the decrease in luminescence (luciferase activity) with versus without Akt1/PKB amounted to 50%.
